Substrate in data set [1]: C[C@@H](O)[C@H]1C(=O)N2C(C(=O)O)=C(S[C@@H]3CN[C@H](C(=O)N(C)C)C3)[C@H](C)[C@H]12
In words: (§1) Kcat/Km ratio of Enterobacter cloacae AmpC.

Substrate in data set [2]: C[C@@H](O)[C@H]1C(=O)N2C(C(=O)O)=C(S[C@@H]3CN[C@H](CNS(N)(=O)=O)C3)[C@H](C)[C@H]12
The data set is described as §1.

Substrate in data set [3]: C[C@@H](O)[C@H]1C(=O)N2C(C(=O)O)=C(SCCNC=N)C[C@H]12
The description is as §1.

Substrate in data set [4]: C[C@@H](O)[C@H]1C(=O)N2C(C(=O)O)=C(S[C@@H]3CN[C@H](C(=O)N(C)C)C3)[C@H](C)[C@H]12
As to the kind of experiment: (§2) Activity of Enterobacter cloacae AmpC.

Substrate in data set [5]: C[C@@H](O)[C@H]1C(=O)N2C(C(=O)O)=C(S[C@@H]3CN[C@H](CNS(N)(=O)=O)C3)[C@H](C)[C@H]12
Described as §2.

Substrate in data set [6]: C[C@@H](O)[C@H]1C(=O)N2C(C(=O)O)=C(SCCNC=N)C[C@H]12
The description is as §2.

Substrate in data set [7]: C[C@@H](O)[C@H]1C(=O)N2C(C(=O)O)=C(S[C@@H]3CN[C@H](C(=O)N(C)C)C3)[C@H](C)[C@H]12
In words: (§3) Activity of Escherichia coli TEM-1.

Substrate in data set [8]: C[C@@H](O)[C@H]1C(=O)N2C(C(=O)O)=C(S[C@@H]3CN[C@H](CNS(N)(=O)=O)C3)[C@H](C)[C@H]12
The description is as §3.

Substrate in data set [9]: C[C@@H](O)[C@H]1C(=O)N2C(C(=O)O)=C(S[C@@H]3CN[C@H](C(=O)N(C)C)C3)[C@H](C)[C@H]12
As to the kind of experiment: (§4) Kcat/Km ratio of Escherichia coli TEM-1.

Substrate in data set [10]: C[C@@H](O)[C@H]1C(=O)N2C(C(=O)O)=C(S[C@@H]3CN[C@H](CNS(N)(=O)=O)C3)[C@H](C)[C@H]12
The description is as §4.

Substrate in data set [11]: C[C@@H](O)[C@H]1C(=O)N2C(C(=O)O)=C(S[C@@H]3CN[C@H](C(=O)N(C)C)C3)[C@H](C)[C@H]12
In words: (§5) Activity of Escherichia coli CTX-M-15.

Substrate in data set [12]: C[C@@H](O)[C@H]1C(=O)N2C(C(=O)O)=C(S[C@@H]3CN[C@H](CNS(N)(=O)=O)C3)[C@H](C)[C@H]12
Described as §5.

Substrate in data set [13]: C[C@@H](O)[C@H]1C(=O)N2C(C(=O)O)=C(SCCNC=N)C[C@H]12
Described as §5.

Substrate in data set [14]: C[C@@H](O)[C@H]1C(=O)N2C(C(=O)O)=C(S[C@@H]3CN[C@H](C(=O)N(C)C)C3)[C@H](C)[C@H]12
The settings on record: Escherichia coli.

Substrate in data set [15]: C[C@@H](O)[C@H]1C(=O)N2C(C(=O)O)=C(S[C@@H]3CN[C@H](CNS(N)(=O)=O)C3)[C@H](C)[C@H]12
The settings on record: Escherichia coli.

Substrate in data set [16]: C[C@@H](O)[C@H]1C(=O)N2C(C(=O)O)=C(SCCNC=N)C[C@H]12
To be noted: Escherichia coli.

Substrate in data set [17]: C[C@@H](O)[C@H]1C(=O)N2C(C(=O)O)=C(S[C@@H]3CN[C@H](C(=O)N(C)C)C3)[C@H](C)[C@H]12
As to the kind of experiment: (§6) Kcat/Km ratio of Serratia marcescens SME-3.

Substrate in data set [18]: C[C@@H](O)[C@H]1C(=O)N2C(C(=O)O)=C(S[C@@H]3CN[C@H](CNS(N)(=O)=O)C3)[C@H](C)[C@H]12
The data set is described as §6.

Substrate in data set [19]: C[C@@H](O)[C@H]1C(=O)N2C(C(=O)O)=C(SCCNC=N)C[C@H]12
The data set is described as §6.

Substrate in data set [20]: C[C@@H](O)[C@H]1C(=O)N2C(C(=O)O)=C(S[C@@H]3CN[C@H](C(=O)N(C)C)C3)[C@H](C)[C@H]12
In words: (§7) Activity of Serratia marcescens SME-3.

Substrate in data set [21]: C[C@@H](O)[C@H]1C(=O)N2C(C(=O)O)=C(S[C@@H]3CN[C@H](CNS(N)(=O)=O)C3)[C@H](C)[C@H]12
Described as §7.

Substrate in data set [22]: C[C@@H](O)[C@H]1C(=O)N2C(C(=O)O)=C(SCCNC=N)C[C@H]12
The data set is described as §7.

In ChEMBL document CHEMBL1212772 one finds kcat/Km, Km and kcat data, which are given here for four proteins.

B1: Beta-lactamase (Enterobacter cloacae), P05364 (protein)
chain: MMRKSLCCALLLGISCSALATPVSEKQLAEVVANTITPLMKAQSVPGMAVAVIYQGKPHYYTFGKADIAANKPVTPQTLFELGSISKTFTGVLGGDAIARGEISLDDAVTRYWPQLTGKQWQGIRMLDLATYTAGGLPLQVPDEVTDNASLLRFYQNWQPQWKPGTTRLYANASIGLFGALAVKPSGMPYEQAMTTRVLKPLKLDHTWINVPKAEEAHYAWGYRDGKAVRVSPGMLDAQAYGVKTNVQDMANWVMANMAPENVADASLKQGIALAQSRYWRIGSMYQGLGWEMLNWPVEANTVVEGSDSKVALAPLPVAEVNPPAPPVKASWVHKTGSTGGFGSYVAFIPEKQIGIVMLANTSYPNPARVEAAYHILEALQ
The kcat/Km is the turnover number divided by the Michaelis constant. By Km is commonly meant the concentration of substrate that gives half-maximal velocity. The term kcat denotes the number of substrate molecules converted per active site and unit of time at saturation. For the protein B1, the kcat/Km in data set [1] was 32 M⁻¹ s⁻¹; in data set [2], 45 M⁻¹ s⁻¹; in data set [3], 500 M⁻¹ s⁻¹. Also, the figures for the Km in data set [4], in data set [5] and in data set [6] were 9.8 µM, 9.6 µM and 24 µM, respectively. Besides, the kcat in data set [4] was 0.00031 s⁻¹; in data set [5] it was 0.00043 s⁻¹; in data set [6] it was 0.012 s⁻¹.

B2: Beta-lactamase TEM (Escherichia coli), P62593 (protein)
chain: MSIQHFRVALIPFFAAFCLPVFAHPETLVKVKDAEDQLGARVGYIELDLNSGKILESFRPEERFPMMSTFKVLLCGAVLSRVDAGQEQLGRRIHYSQNDLVEYSPVTEKHLTDGMTVRELCSAAITMSDNTAANLLLTTIGGPKELTAFLHNMGDHVTRLDRWEPELNEAIPNDERDTTMPAAMATTLRKLLTGELLTLASRQQLIDWMEADKVAGPLLRSALPAGWFIADKSGAGERGSRGIIAALGPDGKPSRIVVIYTTGSQATMDERNRQIAEIGASLIKHW
On to B2, for which the Km in data set [7] is 15 µM; in data set [8], 5.4 µM. Moreover, the values for the kcat in [7] and in data set [8] were 0.00023 s⁻¹ and 0.00021 s⁻¹, respectively. Also, the kcat/Km was found to be 15 M⁻¹ s⁻¹ in data set [9] and 39 M⁻¹ s⁻¹ in [10].

B3: Beta-lactamase CTX-M (Escherichia coli), Q9EXV5 (protein)
chain: MVKKSLRQFTLMATATVTLLLGSVPLYAQTADVQQKLAELERQSGGRLGVALINTADNSQILYRADERFAMCSTSKVMAAAAVLKKSESEPNLLNQRVEIKKSDLVNYNPIAEKHVNGTMSLAELSAAALQYSDNVAMNKLIAHVGGPASVTAFARQLGDETFRLDRTEPTLNTAIPGDPRDTTSPRAMAQTLRNLTLGKALGDSQRAQLVTWMKGNTTGAASIQAGLPASWVVGDKTGSGGYGTTNDIAVIWPKDRAPLILVTYFTQPQPKAESRRDVLASAAKIVTDGL
As for B3, the Km in data set [11] turned out to be 11 µM; in [12] it was 7.1 µM; in data set [13], 120 µM. Also, the values for the kcat in [11], in data set [12] and in data set [13] were 0.0042 s⁻¹, 0.0018 s⁻¹ and 0.17 s⁻¹, respectively. Besides, the kcat/Km is 380 M⁻¹ s⁻¹ in data set [14], 250 M⁻¹ s⁻¹ in [15] and 1400 M⁻¹ s⁻¹ in data set [16].

B4: Carbapenem-hydrolyzing beta-lactamase SME-3 (Serratia marcescens), Q6PRG8 (protein)
chain: MSNKVNFKTASFLFSVCLALSAFNAHANKSDAAAKQIKKLEEDFDGRIGVFAIDTGSGNTFGYRSDERFPLCSSFKGFLAAAVLERVQQKKLDINQKVKYESRDLEYYSPITTKYKGSGMTLGDMASAALQYSDNGATNIIMERFLGGPEGMTKFMRSIGDNEFRLDRWELELNTAIPGDKRDTSTPKAVANSLNKLALGNVLNAKVKAIYQNWLKGNTTGDARIRASVPADWVVGDKTGSCGAYGTANDYAVIWPKNRAPLIVSIYTTRKSKDDKHSDKTIAEASRIAIQAID
With B4, the kcat/Km in data set [17] came out at 550000 M⁻¹ s⁻¹; in data set [18], 300000 M⁻¹ s⁻¹; in data set [19], 2.5e+06 M⁻¹ s⁻¹. Besides, the values for the Km in data set [20], in data set [21] and in [22] were 5.8 µM, 8.2 µM and 150 µM, respectively. Also, the kcat in [20] is 3.2 s⁻¹; in data set [21] it was 2.5 s⁻¹; in data set [22] it was 370 s⁻¹.
